US20260209362A1 (VIB VZW, published 2026)
Residue numbers refer to the chain shown, from its start.

T1: human IL-12Rβ2 (human, UniProt Q99665 24-862)
T1 construct: Expressed on HEK293T cells transiently transfected with a pcDNA3 plasmid (Genscript clone OHu21785); also called hIL-12RB2; IL-12 receptor β2 subunit
T1 sequence: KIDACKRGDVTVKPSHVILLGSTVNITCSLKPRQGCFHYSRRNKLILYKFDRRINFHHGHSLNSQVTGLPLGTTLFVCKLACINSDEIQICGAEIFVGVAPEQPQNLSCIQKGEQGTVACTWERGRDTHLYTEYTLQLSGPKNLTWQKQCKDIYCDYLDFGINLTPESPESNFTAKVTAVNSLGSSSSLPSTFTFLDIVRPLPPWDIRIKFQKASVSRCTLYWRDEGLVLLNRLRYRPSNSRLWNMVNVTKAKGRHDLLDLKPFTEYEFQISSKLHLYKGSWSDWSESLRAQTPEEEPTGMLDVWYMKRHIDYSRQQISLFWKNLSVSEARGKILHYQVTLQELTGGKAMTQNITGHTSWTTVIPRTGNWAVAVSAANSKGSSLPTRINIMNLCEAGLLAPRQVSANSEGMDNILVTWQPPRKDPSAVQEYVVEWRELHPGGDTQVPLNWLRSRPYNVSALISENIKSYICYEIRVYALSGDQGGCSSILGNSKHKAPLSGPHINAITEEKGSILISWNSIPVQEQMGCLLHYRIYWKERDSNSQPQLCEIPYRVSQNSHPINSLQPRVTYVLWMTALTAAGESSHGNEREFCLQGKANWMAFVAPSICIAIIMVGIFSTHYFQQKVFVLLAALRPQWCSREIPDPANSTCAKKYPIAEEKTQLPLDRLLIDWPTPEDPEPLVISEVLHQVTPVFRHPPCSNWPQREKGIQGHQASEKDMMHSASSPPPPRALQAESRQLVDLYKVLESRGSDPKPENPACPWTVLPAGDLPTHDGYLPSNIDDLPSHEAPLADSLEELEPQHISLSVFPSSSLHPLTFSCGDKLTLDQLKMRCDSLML

B1: anti-IL-12Rβ2 VHH clone 3CRHS9 (VHH, not shown: small tags and cut ends)
VHH: QVQLQESGGGLVQPGGSLRLSCTASGSIVSIYNMDWYRQAPGNEREWVASITSSGDPYYDGSAKGRFTISRDNAKMTVYLQMNSLKPEDTAVYYCKVPTEKGNYWGQGTQVTVSS
notes: periplasmic extract
B2: anti-IL-12Rβ2 VHH clone 3CRH18 (VHH, not shown: small tags and cut ends)
VHH: B1 VHH with S27N, E44Q, K86R
notes: periplasmic extract
B3: anti-IL-12Rβ2 VHH clone 3CRH27 (VHH, not shown: small tags and cut ends)
VHH: B1 VHH with P14A
notes: periplasmic extract
B4: anti-IL-12Rβ2 VHH clone 3CRH68 (VHH, not shown: small tags and cut ends)
VHH: B1 VHH with V29L, A40V, E44Q, S53P, A63V, T77M
notes: periplasmic extract
B5: anti-IL-12Rβ2 VHH clone 3CRHS3 (VHH, not shown: small tags and cut ends)
VHH: B1 VHH with V29F, E44Q, G61A, A63V, N73S, V97L
notes: periplasmic extract
B6: anti-IL-12Rβ2 VHH clone 3CRHS54 (VHH, not shown: small tags and cut ends)
VHH: B1 VHH with K86E, Y94F
notes: periplasmic extract
B7: anti-IL-12Rβ2 VHH clone 3CRHS55 (VHH, not shown: small tags and cut ends)
VHH: B1 VHH with P14A, R19N, V29I, E44Q, S54N, P57S, K101N
notes: periplasmic extract
B8: anti-IL-12Rβ2 VHH clone 3CRHS100 (VHH, not shown: small tags and cut ends)
VHH: B1 VHH with V29F, E44Q, S53P, G61D
notes: periplasmic extract
B9: anti-IL-12Rβ2 VHH clone 3CRHS148 (VHH, not shown: small tags and cut ends)
VHH: B1 VHH with T23I, V29F, E44Q, S53P, G61D
notes: periplasmic extract
B10: anti-IL-12Rβ2 VHH clone 2CRH33 (VHH, not shown: small tags and cut ends)
VHH: QVQLQESGGGSVQPGWSLRLTCAASGFTFSTSGMHWFRQAPGKGLEWVSSISSGGGDTYYTDSVKGRITISRDNAKNTLYLQLNDLKSEDTAVYYCSKDPSGATRGQGTQVTVSS
notes: periplasmic extract; also called 20363
B11: anti-IL-12Rβ2 VHH clone 2CRH60 (VHH, not shown: small tags and cut ends)
VHH: B10 VHH with W16G
notes: periplasmic extract
B12: anti-IL-12Rβ2 VHH clone 3CRHS1 (VHH, not shown: small tags and cut ends)
VHH: QVQLQESGGGSVQPGGSLRLSCAASGFTFSTSGMHWFRQAPGKGLEWVSSIGIIVDSSYYASSVKGRFTISRDNAKNTLYLQMNSLKSEDTAVYYCSKDPTGSSRGQGTQVTVSS
notes: periplasmic extract
B13: anti-IL-12Rβ2 VHH clone 2CRH80 (VHH, not shown: small tags and cut ends)
VHH: B12 VHH with S11L, D56G, Q82H, P100V
notes: periplasmic extract
B14: anti-IL-12Rβ2 VHH clone 3CRH14 (VHH, not shown: small tags and cut ends)
VHH: B12 VHH with S11L, S62D, Y80F
notes: periplasmic extract
B15: anti-IL-12Rβ2 VHH clone 3CRH43 (VHH, not shown: small tags and cut ends)
VHH: B12 VHH with T78I, L79V
notes: periplasmic extract
B16: anti-IL-12Rβ2 VHH clone 3CRH45 (VHH, not shown: small tags and cut ends)
VHH: B12 VHH with S11L, S32F, V55D, S57N, P100T
notes: periplasmic extract
B17: anti-IL-12Rβ2 VHH clone 3CRHS109 (VHH, not shown: small tags and cut ends)
VHH: B12 VHH with S11L, Q82H, P100V
notes: periplasmic extract
B18: anti-IL-12Rβ2 VHH clone 3CRHS128 (VHH, not shown: small tags and cut ends)
VHH: B12 VHH with S11L, I53A, I54T, S57N, Q82L
notes: periplasmic extract
B19: anti-IL-12Rβ2 VHH clone 3CRH17 (VHH, not shown: small tags and cut ends)
VHH: QVQLQESGGGLVQAGGSLVLSCAASGSAALIFLMSWYRQAPGKQRELVAEVSRYGSTTYADSVEGRFTISRDNAKNIVDLQMNSLKPEDTAVYYCKADQYYGDSLRSSWGRGTQVTVSS
notes: periplasmic extract
B20: anti-IL-12Rβ2 VHH clone 2CRH10 (VHH, not shown: small tags and cut ends)
VHH: B19 VHH with Y54G, T68H, Y100N
notes: periplasmic extract; also called 20362
B21: anti-IL-12Rβ2 VHH clone 2CRH53 (VHH, not shown: small tags and cut ends)
VHH: B19 VHH with N76D
notes: periplasmic extract
B22: anti-IL-12Rβ2 VHH clone 2CRH73 (VHH, not shown: small tags and cut ends)
VHH: B19 VHH with V19R, S21T, A23T, Y54R
notes: periplasmic extract
B23: anti-IL-12Rβ2 VHH clone 3CRH5 (VHH, not shown: small tags and cut ends)
VHH: B19 VHH with Y54G, Y100N, R111Q
notes: periplasmic extract
B24: anti-IL-12Rβ2 VHH clone 3CRH38 (VHH, not shown: small tags and cut ends)
VHH: B19 VHH with Y54G, Y100N
notes: periplasmic extract
B25: anti-IL-12Rβ2 VHH clone 3CRH67 (VHH, not shown: small tags and cut ends)
VHH: B19 VHH with V92A
notes: periplasmic extract
B26: anti-IL-12Rβ2 VHH clone 3CRHS2 (VHH, not shown: small tags and cut ends)
VHH: B19 VHH with A14L, V19T
notes: periplasmic extract
B27: anti-IL-12Rβ2 VHH clone 3CRHS184 (VHH, not shown: small tags and cut ends)
VHH: B19 VHH with V115L
notes: periplasmic extract
B28: anti-IL-12Rβ2 VHH clone 3CAHS39 (VHH, not shown: small tags and cut ends)
VHH: QVQLQESGGGLVQAGGSLRLSCAASGRTINAYIMGWFRQAPGKEREFVAAVSGSGGSTYYADSVKGRFTISRDNAKNTVNLQMDNLRSEDTDVYYCAATYESVYLQNPGQYDYWGQGTQVTVSS
notes: periplasmic extract
B29: anti-IL-12Rβ2 VHH clone 3CAHS43 (VHH, not shown: small tags and cut ends)
VHH: B28 VHH with L11S, Q106R
notes: periplasmic extract
B30: anti-IL-12Rβ2 VHH clone 3CAHS52 (VHH, not shown: small tags and cut ends)
VHH: B28 VHH with L11S
notes: periplasmic extract
B31: anti-IL-12Rβ2 VHH clone 3CAHS53 (VHH, not shown: small tags and cut ends)
VHH: B28 VHH with Q13E, A14P, N74S
notes: periplasmic extract
B32: anti-IL-12Rβ2 VHH clone 3CAHS124 (VHH, not shown: small tags and cut ends)
VHH: B28 VHH with A14P
notes: periplasmic extract
B33: anti-IL-12Rβ2 VHH clone 3CAHS150 (VHH, not shown: small tags and cut ends)
VHH: B28 VHH with L11S, I33V, V51I
notes: periplasmic extract
B34: anti-IL-12Rβ2 VHH clone 3CAHS170 (VHH, not shown: small tags and cut ends)
VHH: QVQLQESGGGLVQAGGSLRLSCVASGRTFSSYAMGWFRQGPGKEREFVAAISWSGVSIYYADSVKGRFTISRDNAKNTVYLQMNSLEPEDTAVYYCAGTEGAYTVAGGSTFGYDMDYWGKGTQVTVSS
notes: periplasmic extract
B35: anti-IL-12Rβ2 VHH clone 2CAH27 (VHH, not shown: small tags and cut ends)
VHH: B34 VHH with L11S, A14S
notes: periplasmic extract

Molecular target: T1, human IL-12Rβ2
Assay: flow cytometry, P.E. on transfected HEK293T cells

Binder	% cells bound [%]	dMFI
B1	42.1	1040
B2	41.7	918
B3	38.9	812
B4	38.2	787
B5	47.2	1320
B6	41.5	970
B7	40.5	961
B8	43.2	1130
B9	42	1030
B10	44.8	1120
B11	45.3	1100
B12	44.5	1080
B13	40.1	809
B14	41.7	864
B15	45.5	1160
B16	37.6	742
B17	46.5	1260
B18	50.5	1480

Binder	% cells bound [%]	dMFI
B19	32.5	583
B20	30.8	595
B21	35.3	686
B22	36.7	707
B23	39.5	835
B24	31.8	537
B25	35.1	645
B26	44.5	1150
B27	33.3	625
B28	39	918
B29	47.6	1350
B30	44.3	1110
B31	49.3	1460
B32	46.3	1200
B33	47.4	1270
B34	38.3	809
B35	36.7	668
